Results from the supplement of paper PMC10065799, “High-throughput profiling of sequence recognition by tyrosine kinases and SH2 domains using bacterial peptide display” (eLife, 2023).

Tests used:
[1] = test system: AncSZ; experiment: phosphorylation enrichment, bacterial display (enrichment ratio); higher = better substrate or ligand; peptides without Tyr show the background
[2] = biological target: EPHB1 (UniProt P54762); experiment: as above
[3] = biological target: EPHB2 (UniProt P29323); experiment: as above
[4] = biological target: FGFR1 (UniProt P11362); experiment: as above
[5] = biological target: FGFR3 (UniProt P22607); experiment: as above
[6] = test system: Fer (mouse); experiment: as above
[7] = biological target: Fes (UniProt P07332); experiment: as above
[8] = biological target: Fyn (UniProt P06241); experiment: as above
[9] = biological target: Hck (UniProt P08631); experiment: as above
[10] = biological target: Jak2 (UniProt O60674); experiment: as above
[11] = biological target: MERTK (UniProt Q12866); experiment: as above
[12] = test system: c-Abl (mouse); experiment: as above
[13] = test system: c-Src; experiment: as above
[14] = biological target: Grb2 SH2 (UniProt P62993); experiment: SH2 binding enrichment of the phosphorylated peptide, bacterial display (enrichment ratio); higher = better substrate or ligand; peptides without Tyr show the background
[15] = biological target: SHP2-C SH2; experiment: as above
[16] = biological target: c-Src SH2; experiment: as above
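Wherever SH2 binding enrichment of the phosphorylated peptide, bacterial display is given: peptide library displayed on the E. coli surface as eCPX fusions, selected cells deep-sequenced, score is each peptide's frequency after selection divided by its frequency in the input.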
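Wherever phosphorylation enrichment, bacterial display is given: 11-residue human phosphosite peptides and single-mutation variants displayed on the E. coli surface, counted by deep sequencing, each peptide's frequency after selection divided by its frequency in the unselected input library; frequency after pTyr selection over input frequency; kinase dosed for 20-30% of maximal phosphorylation in three min.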

MERTK, sequence (Q12866 whole entry, looked up): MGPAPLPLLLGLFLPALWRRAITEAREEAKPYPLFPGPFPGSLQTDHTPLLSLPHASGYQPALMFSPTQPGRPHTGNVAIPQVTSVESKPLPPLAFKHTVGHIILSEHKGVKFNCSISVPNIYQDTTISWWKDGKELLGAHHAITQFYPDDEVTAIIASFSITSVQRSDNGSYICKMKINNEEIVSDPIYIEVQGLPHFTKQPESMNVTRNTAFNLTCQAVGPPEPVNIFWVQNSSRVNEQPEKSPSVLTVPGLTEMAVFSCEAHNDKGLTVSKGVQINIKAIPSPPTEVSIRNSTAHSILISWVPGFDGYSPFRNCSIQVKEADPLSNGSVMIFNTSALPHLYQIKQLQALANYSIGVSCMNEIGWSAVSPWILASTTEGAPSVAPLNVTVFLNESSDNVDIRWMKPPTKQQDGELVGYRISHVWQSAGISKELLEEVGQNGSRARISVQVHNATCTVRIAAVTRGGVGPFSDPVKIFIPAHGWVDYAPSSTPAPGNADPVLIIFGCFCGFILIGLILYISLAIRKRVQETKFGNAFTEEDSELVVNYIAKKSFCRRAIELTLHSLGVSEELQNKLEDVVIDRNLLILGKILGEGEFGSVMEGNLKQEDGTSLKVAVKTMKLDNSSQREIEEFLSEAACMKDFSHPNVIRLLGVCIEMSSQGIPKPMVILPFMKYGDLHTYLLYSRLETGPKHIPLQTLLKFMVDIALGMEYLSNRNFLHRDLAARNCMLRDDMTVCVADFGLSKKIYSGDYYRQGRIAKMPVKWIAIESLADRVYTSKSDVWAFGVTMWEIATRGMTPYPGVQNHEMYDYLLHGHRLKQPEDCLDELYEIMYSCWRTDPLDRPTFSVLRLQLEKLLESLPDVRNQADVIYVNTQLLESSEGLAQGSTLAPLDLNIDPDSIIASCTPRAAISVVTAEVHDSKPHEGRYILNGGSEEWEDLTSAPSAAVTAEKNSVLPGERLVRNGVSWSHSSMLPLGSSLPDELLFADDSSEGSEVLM
Jak2, sequence (O60674 whole entry, looked up): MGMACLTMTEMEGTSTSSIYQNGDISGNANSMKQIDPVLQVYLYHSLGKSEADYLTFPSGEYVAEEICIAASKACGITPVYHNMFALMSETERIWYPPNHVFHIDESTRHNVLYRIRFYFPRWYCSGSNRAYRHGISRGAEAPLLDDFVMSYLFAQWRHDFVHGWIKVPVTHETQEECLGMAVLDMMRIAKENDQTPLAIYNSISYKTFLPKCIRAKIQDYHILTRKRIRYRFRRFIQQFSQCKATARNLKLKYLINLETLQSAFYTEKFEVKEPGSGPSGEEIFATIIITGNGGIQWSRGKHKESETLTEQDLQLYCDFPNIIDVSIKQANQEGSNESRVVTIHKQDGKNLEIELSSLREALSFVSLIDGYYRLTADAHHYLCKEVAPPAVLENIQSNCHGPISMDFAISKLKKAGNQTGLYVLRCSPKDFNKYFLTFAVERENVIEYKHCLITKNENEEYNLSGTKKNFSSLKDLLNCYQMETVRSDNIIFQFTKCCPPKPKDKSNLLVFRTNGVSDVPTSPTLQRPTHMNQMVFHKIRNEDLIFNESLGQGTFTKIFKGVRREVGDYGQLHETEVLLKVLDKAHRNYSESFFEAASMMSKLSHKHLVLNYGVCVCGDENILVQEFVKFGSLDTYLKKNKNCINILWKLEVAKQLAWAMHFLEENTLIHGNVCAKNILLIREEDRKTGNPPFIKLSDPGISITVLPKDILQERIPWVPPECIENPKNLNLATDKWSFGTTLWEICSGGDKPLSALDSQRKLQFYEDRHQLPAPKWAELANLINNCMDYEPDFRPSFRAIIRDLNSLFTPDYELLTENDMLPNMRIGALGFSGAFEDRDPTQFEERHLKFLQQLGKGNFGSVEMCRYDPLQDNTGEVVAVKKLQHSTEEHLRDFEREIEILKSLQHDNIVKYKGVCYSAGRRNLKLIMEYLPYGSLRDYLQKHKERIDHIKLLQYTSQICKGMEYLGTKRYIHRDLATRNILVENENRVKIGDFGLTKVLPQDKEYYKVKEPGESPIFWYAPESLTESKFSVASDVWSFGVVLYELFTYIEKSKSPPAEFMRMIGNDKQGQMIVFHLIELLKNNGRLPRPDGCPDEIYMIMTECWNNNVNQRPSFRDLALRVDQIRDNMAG
EPHB1, sequence (P54762 whole entry, looked up): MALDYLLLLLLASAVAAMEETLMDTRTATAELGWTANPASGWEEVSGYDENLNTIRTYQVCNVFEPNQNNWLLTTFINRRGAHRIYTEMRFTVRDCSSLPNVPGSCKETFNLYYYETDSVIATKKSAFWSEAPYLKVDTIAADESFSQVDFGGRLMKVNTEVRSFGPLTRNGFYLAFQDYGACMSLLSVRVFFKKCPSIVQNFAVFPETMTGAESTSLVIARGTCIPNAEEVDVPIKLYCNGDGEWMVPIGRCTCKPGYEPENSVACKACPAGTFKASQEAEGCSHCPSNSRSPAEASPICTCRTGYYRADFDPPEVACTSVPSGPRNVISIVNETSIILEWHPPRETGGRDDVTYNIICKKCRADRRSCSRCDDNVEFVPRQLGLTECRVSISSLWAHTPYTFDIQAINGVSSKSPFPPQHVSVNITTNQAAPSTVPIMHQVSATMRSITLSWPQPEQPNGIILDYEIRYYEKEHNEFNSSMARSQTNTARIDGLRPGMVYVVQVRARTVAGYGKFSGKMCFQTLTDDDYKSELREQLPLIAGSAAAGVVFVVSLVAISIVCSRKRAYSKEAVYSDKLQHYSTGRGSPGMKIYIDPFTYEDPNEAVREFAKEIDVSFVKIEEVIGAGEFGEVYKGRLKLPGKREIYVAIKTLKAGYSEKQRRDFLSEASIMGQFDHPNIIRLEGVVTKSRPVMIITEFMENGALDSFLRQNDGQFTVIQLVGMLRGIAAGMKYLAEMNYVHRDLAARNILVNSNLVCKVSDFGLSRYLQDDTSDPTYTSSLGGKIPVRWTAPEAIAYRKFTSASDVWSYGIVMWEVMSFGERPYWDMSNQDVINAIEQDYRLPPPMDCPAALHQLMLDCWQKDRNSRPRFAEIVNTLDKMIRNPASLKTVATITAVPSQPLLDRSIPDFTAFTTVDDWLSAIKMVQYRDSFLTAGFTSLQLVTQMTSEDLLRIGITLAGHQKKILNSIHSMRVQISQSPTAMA
Hck, sequence (P08631 whole entry, looked up): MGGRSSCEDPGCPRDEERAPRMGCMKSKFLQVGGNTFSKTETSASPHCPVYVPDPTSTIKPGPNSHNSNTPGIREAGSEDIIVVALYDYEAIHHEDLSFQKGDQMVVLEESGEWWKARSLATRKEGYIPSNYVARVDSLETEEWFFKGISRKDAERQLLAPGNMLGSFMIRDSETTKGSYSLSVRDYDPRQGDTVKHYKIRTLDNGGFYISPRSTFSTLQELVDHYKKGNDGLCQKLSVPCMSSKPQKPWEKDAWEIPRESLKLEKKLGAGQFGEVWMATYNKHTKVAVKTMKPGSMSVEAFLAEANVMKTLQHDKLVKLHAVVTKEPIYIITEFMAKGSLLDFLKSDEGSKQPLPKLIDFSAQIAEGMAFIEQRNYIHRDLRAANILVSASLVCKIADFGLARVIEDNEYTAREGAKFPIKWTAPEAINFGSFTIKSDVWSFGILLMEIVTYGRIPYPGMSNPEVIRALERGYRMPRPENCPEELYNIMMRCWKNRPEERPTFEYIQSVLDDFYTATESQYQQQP
Fyn, sequence (P06241 whole entry, looked up): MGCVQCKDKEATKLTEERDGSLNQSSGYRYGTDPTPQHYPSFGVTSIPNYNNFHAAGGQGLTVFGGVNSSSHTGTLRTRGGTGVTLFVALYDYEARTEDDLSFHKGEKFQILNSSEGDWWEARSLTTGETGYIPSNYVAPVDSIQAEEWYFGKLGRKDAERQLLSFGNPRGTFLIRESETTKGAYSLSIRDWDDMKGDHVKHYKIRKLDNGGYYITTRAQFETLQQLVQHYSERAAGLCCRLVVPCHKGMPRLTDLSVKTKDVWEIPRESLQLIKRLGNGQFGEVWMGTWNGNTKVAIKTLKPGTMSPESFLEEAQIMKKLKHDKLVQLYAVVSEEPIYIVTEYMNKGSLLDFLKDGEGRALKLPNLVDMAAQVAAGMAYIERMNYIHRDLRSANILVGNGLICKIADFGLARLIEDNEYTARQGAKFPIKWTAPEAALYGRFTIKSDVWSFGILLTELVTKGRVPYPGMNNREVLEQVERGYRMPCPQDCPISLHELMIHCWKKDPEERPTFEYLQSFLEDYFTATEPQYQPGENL
FGFR1, sequence (P11362 whole entry, looked up): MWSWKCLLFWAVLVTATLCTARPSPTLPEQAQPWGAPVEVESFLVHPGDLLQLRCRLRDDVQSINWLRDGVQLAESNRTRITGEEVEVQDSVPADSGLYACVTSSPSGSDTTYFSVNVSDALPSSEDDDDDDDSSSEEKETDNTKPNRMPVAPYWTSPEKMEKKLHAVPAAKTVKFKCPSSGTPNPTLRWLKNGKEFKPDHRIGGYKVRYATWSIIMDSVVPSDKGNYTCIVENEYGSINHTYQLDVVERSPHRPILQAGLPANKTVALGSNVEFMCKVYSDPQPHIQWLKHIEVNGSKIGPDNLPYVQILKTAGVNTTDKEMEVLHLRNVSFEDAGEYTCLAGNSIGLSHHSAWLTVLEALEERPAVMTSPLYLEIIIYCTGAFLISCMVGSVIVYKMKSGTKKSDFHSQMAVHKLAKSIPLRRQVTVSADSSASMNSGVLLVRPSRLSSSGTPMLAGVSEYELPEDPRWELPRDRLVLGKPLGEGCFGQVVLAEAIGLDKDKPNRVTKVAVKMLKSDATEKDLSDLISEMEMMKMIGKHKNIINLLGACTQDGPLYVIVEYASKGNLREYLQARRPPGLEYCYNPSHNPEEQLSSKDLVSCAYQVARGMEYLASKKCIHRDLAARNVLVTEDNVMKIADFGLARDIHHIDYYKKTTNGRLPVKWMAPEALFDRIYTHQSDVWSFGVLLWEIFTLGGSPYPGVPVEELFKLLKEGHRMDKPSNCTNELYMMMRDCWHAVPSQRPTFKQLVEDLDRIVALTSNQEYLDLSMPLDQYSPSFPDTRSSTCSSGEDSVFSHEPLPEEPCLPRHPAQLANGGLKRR

SH2 binding enrichment [14]	SH2 binding enrichment [15]	SH2 binding enrichment [16]	Sequence	phosphorylation enrichment [1]	phosphorylation enrichment [2]	phosphorylation enrichment [3]	phosphorylation enrichment [4]	phosphorylation enrichment [5]	phosphorylation enrichment [6]	phosphorylation enrichment [7]	phosphorylation enrichment [8]	phosphorylation enrichment [9]	phosphorylation enrichment [10]	phosphorylation enrichment [11]	phosphorylation enrichment [12]	phosphorylation enrichment [13]
0.604	0.592	0.341	DDLEVYLKHPL [SACS_Y3477_L3481P]	1.53	0.871	0.625	0.643	0.735	0.558	1.31	1.26	1.73	1.32	0.562	0.842	1.85
1.32	0.811	0.701	DDSNPYINVKL [MTHFD1_Y52_L51P]	1.45	0.551	0.614	0.631	0.884	1.2	1.66	0.645	0.606	1.16	0.526	0.846	0.59
0.835	1	1.44	DFPGIYSGYDD [POLR1C_Y33_N32I]	1.09	0.627	0.652	0.485	0.696	0.687	1.05	6.48	3.4	0.946	0.565	0.796	5.19
0.801	1.04	0.443	DGNIDYAEFAK [MCFD2_Y138_Y135N]	1.24	0.498	0.545	0.595	0.62	0.445	1.2	0.804	0.673	0.987	0.51	0.757	0.646
0.813	0.58	0.469	DKVFTYIFIME [SCN4A_Y1074]	1.32	0.645	0.695	0.54	1.14	0.658	1.53	0.41	0.575	1.35	0.41	0.968	0.533
0.589	0.592	0.404	DLDTDYGSGFP [RNASEH2A_Y206_YF]	1.22	0.585	0.443	0.447	0.588	0.465	0.978	0.45	0.49	0.979	0.38	0.673	0.511
0.725	0.456	0.56	DNEALYDTCFR [TUBB2B_Y208_I210T]	2.34	2.85	2.71	0.61	0.888	8.38	1.49	6.81	6.09	1.23	6.63	2.25	5.2
0.739	0.641	0.541	DNKALYDICFR [TUBB3_Y208_E205K]	1.38	2.95	2.23	0.612	0.853	4.5	1.26	2.6	4.34	1.18	7.18	1.41	3.21
0.669	0.702	0.457	DQLVKHGVNPG [TMPO_Y127_Y127H]	0.47	0.347	0.304	0.329	0.377	0.284	0.467	0.308	0.386	0.479	0.344	0.421	0.346
0.882	0.81	0.441	DQVEQYNKELE [LMNA_Y259_K260N]	1.09	0.683	0.672	0.552	0.762	0.494	1.23	0.558	0.581	1.17	0.418	0.692	0.459
0.712	0.744	0.609	DTNIAYCLHPR [POMT1_Y581_W582C]	0.831	0.549	0.532	0.471	0.691	0.505	1.06	0.541	0.431	0.754	0.695	0.753	0.568
0.751	0.559	0.509	DTYDPYLDVAL [USP36_Y268]	1.55	0.805	0.776	0.742	0.853	0.661	1.32	1.19	0.846	1.1	0.412	0.859	1.43
0.964	0.592	0.528	DVFVSYDCGKS [SORL1_Y139_Y141C_YF]	0.969	0.611	0.518	0.485	0.61	0.521	1.04	0.495	0.592	1.05	0.371	0.74	0.449

The next lines start with the sequence.

Sequence	SH2 binding enrichment [14]	SH2 binding enrichment [15]	SH2 binding enrichment [16]	phosphorylation enrichment [1]	phosphorylation enrichment [2]	phosphorylation enrichment [3]	phosphorylation enrichment [4]	phosphorylation enrichment [5]	phosphorylation enrichment [6]	phosphorylation enrichment [7]	phosphorylation enrichment [8]	phosphorylation enrichment [9]	phosphorylation enrichment [10]	phosphorylation enrichment [11]	phosphorylation enrichment [12]	phosphorylation enrichment [13]
DEEYEYMNRRR [ERBB3_Y1199]	0.837	0.701	0.619	1.57	0.465	0.503	0.501	0.629	0.466	0.986	0.483	0.546	0.93	0.37	0.65	0.454
DEFLEHRRIVG [FAM221A_Y20_Y20H_YF]	0.813	0.574	0.531	0.747	0.447	0.494	0.45	0.502	0.387	0.902	0.425	0.47	0.716	0.48	0.58	0.409
DERQPYAHMNG [IGF1R_Y1346]	0.729	0.767	1.85	0.588	0.359	0.362	0.45	0.459	0.456	0.599	0.438	0.427	0.533	0.343	0.455	0.376
DESEDYRDTVV [CNNM3_Y456]	0.901	0.587	0.439	1.46	0.975	0.931	0.677	1.13	0.78	1.59	0.623	0.765	1.4	0.633	0.897	0.662
DEWFLYKMRDI [CPS1_Y879_K875E]	0.653	0.829	0.417	1.25	0.751	0.585	0.503	0.878	0.586	1.56	0.486	0.615	1.63	0.4	0.935	0.816
DEYLEYRRIVG [FAM221A_Y20]	1.03	0.762	0.547	1.14	1.12	0.615	1.07	0.968	0.51	0.881	1.03	1.06	0.91	0.38	0.859	1.07
DFSLKYATDIP [APC_Y1183_YF]	0.781	0.737	0.457	0.914	0.606	0.619	0.592	0.668	0.536	1.08	0.524	0.47	0.897	0.374	0.572	0.378
DGMADYSDPSY [CDC5L_Y459]	0.833	0.616	0.459	1.43	1.33	1.71	0.611	0.686	0.486	1.3	0.571	0.487	1.47	0.496	0.859	0.538
DGTGHYLCNAC [GATA5_Y208]	0.83	0.658	0.45	0.625	0.61	0.445	0.456	0.416	0.458	0.763	0.396	0.45	0.681	0.398	0.595	0.421
DGTGHYLGNAC [GATA5_Y208_C210G]	0.966	0.561	0.492	0.624	0.471	0.456	0.421	0.474	0.4	0.727	0.347	0.399	0.548	0.357	0.554	0.311
DLAGRYFALKS [CKB_Y173_YF]	1.38	0.688	0.585	0.633	0.487	0.574	0.412	0.613	0.37	0.848	0.433	0.453	1.57	0.558	1.49	0.545
DLSEVYKPCRK [CCDC93_Y176_R179C]	0.963	0.853	0.528	0.847	0.483	0.532	0.53	0.668	0.453	0.935	0.451	0.506	0.829	0.419	0.729	0.405
DMDATYRPMFS [JUP_Y701_YF]	0.762	0.886	0.472	0.831	0.52	0.448	0.498	0.649	0.465	0.99	0.592	0.762	0.752	0.461	0.763	0.624
DNLSNYVFQGQ [GRIN2A_Y978_N976S]	0.904	0.818	0.601	0.71	2.09	1.22	0.571	0.611	0.416	0.796	0.475	0.41	0.783	0.618	0.546	0.454
DPADRYLTEQY [CDKL5_Y286_C291Y]	1	0.944	0.429	0.899	0.398	0.487	0.454	0.597	0.39	1.15	0.478	0.497	0.965	0.402	0.806	0.477
DRFDNYIEKVR [DES_Y122_A120D]	0.836	0.596	0.507	0.709	0.348	0.433	0.539	0.604	0.408	0.774	0.432	0.413	0.755	0.406	0.583	0.421
DRIVNYSRASV [ATP7A_Y1459_I1464V]	0.766	0.706	0.533	0.702	0.482	0.438	0.467	0.535	0.449	0.79	0.423	0.45	0.732	0.574	0.563	0.468
DRKRQYELLKL [KIF4B_Y684]	1.17	1.04	1.49	0.682	0.44	0.462	0.331	0.576	0.421	0.758	0.392	0.488	0.876	0.4	0.545	0.395
DRPASYLDKVR [KRT17_Y98_L95P]	0.828	0.664	0.502	0.674	0.446	0.396	0.465	0.456	0.405	0.636	0.398	0.432	0.556	0.51	0.624	0.474
DVCKNYAKAKD [ALB_Y343_E345K]	1.03	0.956	0.559	0.71	0.469	0.535	0.409	0.498	0.473	0.627	0.428	0.439	0.607	0.51	0.633	0.4
